T1: gp130EC (human, UniProt P40189 23-619, N-linked glycans (N21, N61, N135 seen in the structures))
T1 construct: Secreted with a honeybee-melittin signal peptide; D5-D6 are not in the deposited model 8DPT; also called complete extracellular domains of gp130; D1-D6 domains of gp130; not shown: His8, N-terminal, cleaved
T1 sequence (looked up): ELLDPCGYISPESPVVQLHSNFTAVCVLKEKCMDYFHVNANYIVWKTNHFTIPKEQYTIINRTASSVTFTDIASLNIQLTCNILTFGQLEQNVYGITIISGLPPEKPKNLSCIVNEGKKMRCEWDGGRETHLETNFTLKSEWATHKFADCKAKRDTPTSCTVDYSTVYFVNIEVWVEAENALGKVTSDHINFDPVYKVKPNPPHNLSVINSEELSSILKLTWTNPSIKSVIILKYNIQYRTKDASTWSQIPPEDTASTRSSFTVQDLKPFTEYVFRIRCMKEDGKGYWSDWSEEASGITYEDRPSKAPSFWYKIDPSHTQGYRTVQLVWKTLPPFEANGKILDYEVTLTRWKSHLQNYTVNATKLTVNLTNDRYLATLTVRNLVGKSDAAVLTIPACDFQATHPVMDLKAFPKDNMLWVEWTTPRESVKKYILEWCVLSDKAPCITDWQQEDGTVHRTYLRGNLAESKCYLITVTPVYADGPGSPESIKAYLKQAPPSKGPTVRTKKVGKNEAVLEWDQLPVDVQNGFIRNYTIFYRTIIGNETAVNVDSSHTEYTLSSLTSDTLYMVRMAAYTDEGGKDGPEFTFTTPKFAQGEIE


Key:
[1] = biological target: the molecule itself; test: AUC; sedimentation velocity, 50,000 rpm, 20 °C, c(s) model with floating frictional ratio (SEDFIT)
gp130EC = biological target: T1, gp130EC; test: ITC; gp130 in the syringe titrated against the cytokine/IL-11Rα_(D1-D3) complex formed in the cell, 288 K, TBS pH 8.5, 1:1 interaction model, n = 3; settings: both partners purified

Binder	binding result [1]	Kd (gp130EC) [nM]
IL-11Δ10/IL-11Rα_(D1-D3)/gp130EC trimer (complex, human, IL-11, human, IL-11Δ10, as m1; numbers count on: the mature protein; IL-11Rα, human, D1-D3, as m8; gp130, human, D1-D6, as m12; Two such trimers associate to the hexamer; also called one half of the gp130EC complex; source: equimolar mix of the purified proteins; not shown: His6, N-terminal, cleaved; His8, N-terminal, cleaved; copies: 1 + 1 + 1) chain 1: SPDPRAELDSTVLLTRSLLADTRQLAAQLRDKFPADGDHNLDSLPTLAMSAGALGALQLPGVLTRLRADLLSYLRHVQWLRRAGGSSLKTLEPELGTLQARLDRLLRRLQLLMSRLALPQPPPDPPAPPLAPPSSAWGGIRAAHAILGGLHLTLDWAVRGLLLLKTRL chain 2: SSPCPQAWGPPGVQYGQPGRSVKLCCPGVTAGDPVSWFRDGEPKLLQGPDSGLGHELVLAQADSTDEGTYICQTLDGALGGTVTLQLGYPPARPVVSCQAADYENFSCTWSPSQISGLPTRYLTSYRKKTVLGADSQRRSPSTGPWPCPQDPLGAARCVVHGAEFWSQYRINVTEVNPLGASTRLLDVSLQSILRPDPPQGLRVESVPGYPRRLRASWTYPASWPCQPHFLLKFRLQYRPAQHPAWSTVEPAGLEEVITDAVAGLPHAVRVSARDFLDAGTWSTWSPEAWGTPSTGT chain 3: ELLDPCGYISPESPVVQLHSNFTAVCVLKEKCMDYFHVNANYIVWKTNHFTIPKEQYTIINRTASSVTFTDIASLNIQLTCNILTFGQLEQNVYGITIISGLPPEKPKNLSCIVNEGKKMRCEWDGGRETHLETNFTLKSEWATHKFADCKAKRDTPTSCTVDYSTVYFVNIEVWVEAENALGKVTSDHINFDPVYKVKPNPPHNLSVINSEELSSILKLTWTNPSIKSVIILKYNIQYRTKDASTWSQIPPEDTASTRSSFTVQDLKPFTEYVFRIRCMKEDGKGYWSDWSEEASGITYEDRPSKAPSFWYKIDPSHTQGYRTVQLVWKTLPPFEANGKILDYEVTLTRWKSHLQNYTVNATKLTVNLTNDRYLATLTVRNLVGKSDAAVLTIPACDFQATHPVMDLKAFPKDNMLWVEWTTPRESVKKYILEWCVLSDKAPCITDWQQEDGTVHRTYLRGNLAESKCYLITVTPVYADGPGSPESIKAYLKQAPPSKGPTVRTKKVGKNEAVLEWDQLPVDVQNGFIRNYTIFYRTIIGNETAVNVDSSHTEYTLSSLTSDTLYMVRMAAYTDEGGKDGPEFTFTTPKFAQGEIE	binds	–
IL-11Δ10/IL-11Rα_(D1-D3) binary complex (complex, human, IL-11, human, IL-11Δ10, as m1; numbers count on: the mature protein; IL-11Rα, human, D1-D3, as m8; m1 with m8; also called IL-11Rα_(D1-D3)/IL-11Δ10 binary complex; binary IL-11/IL-11Rα complex; source: formed from the purified proteins (IL-11Δ10 from E. coli, IL-11Rα_(D1-D3) from Sf21); in ITC by titrating the cytokine into IL-11Rα; not shown: His6, N-terminal, cleaved; His8, N-terminal, cleaved; …) chain 1: SPDPRAELDSTVLLTRSLLADTRQLAAQLRDKFPADGDHNLDSLPTLAMSAGALGALQLPGVLTRLRADLLSYLRHVQWLRRAGGSSLKTLEPELGTLQARLDRLLRRLQLLMSRLALPQPPPDPPAPPLAPPSSAWGGIRAAHAILGGLHLTLDWAVRGLLLLKTRL chain 2: SSPCPQAWGPPGVQYGQPGRSVKLCCPGVTAGDPVSWFRDGEPKLLQGPDSGLGHELVLAQADSTDEGTYICQTLDGALGGTVTLQLGYPPARPVVSCQAADYENFSCTWSPSQISGLPTRYLTSYRKKTVLGADSQRRSPSTGPWPCPQDPLGAARCVVHGAEFWSQYRINVTEVNPLGASTRLLDVSLQSILRPDPPQGLRVESVPGYPRRLRASWTYPASWPCQPHFLLKFRLQYRPAQHPAWSTVEPAGLEEVITDAVAGLPHAVRVSARDFLDAGTWSTWSPEAWGTPSTGT	–	4

Source: article PMC10662374, “Structures of the interleukin 11 signalling complex reveal gp130 dynamics and the inhibitory mechanism of a cytokine variant” (Nature Communications, 2023)
